Test results published in PMC9894594, “Progressive Acceleration of Insulin Exposure Over 7 Days of Infusion Set Wear” (Diabetes Technology & Therapeutics, 2023).

Assay: Insulin lispro pharmacokinetics after pump bolus during euglycemic clamp over 7 days of infusion set wear
Assay type: in vivo, human (participants with type 1 diabetes mellitus)
Conditions: for decline of median total insulin exposure (AUC0–300) from days 0 to 7: n.s.; for AUC0–300 (area under the insulin concentration curve, 0 to 300 min) / Cmax (maximum insulin concentration) / MRT (mean residence time) / t50% (early) (time to reach 50% of Cmax before peak) / t50% (late) (time to reach 50% of Cmax after peak) / tmax (time to maximum insulin concentration): 0.15 U/kg SC bolus by pump, plasma ELISA, median (25th–75th)
Source text: We performed a prospectively enrolled randomized sequence two-way crossover study of the investigational CBX (Capillary Biomedical, Inc., Irvine, CA) and a commercial angled Teflon (MiniMed™ Silhouette™; Medtronic Diabetes Care, Northridge, CA; indicated for 3-day use) IIS for two weeklong home use periods with four in-patient euglycemic clamp sessions during each of the 7-day periods. Between the two periods, there was a wash out of 14 days (Supplementary Fig. S1).
Euglycemic clamp experiments were performed at AMCR Institute (in Escondido, CA.) on days 0, 3, 5, and 7 in each treatment period (eight clamps per participant). Participants were admitted to AMCR the evening before the clamp study and glucose was stabilized overnight with intravenous (IV) insulin or glucose as needed. Personal pumps were set to 0.1 U/h overnight and throughout the clamp experiment. Once glucose was stable (95 ± 15 mg/dL) in the morning, IV insulin was stopped 20 min before administering a bolus of 0.15 U/kg of insulin lispro (Eli Lilly, Indianapolis, IN) by pump. Glucose was clamped at 95 ± 15 mg/dL for 300 min or terminated early if runaway hyperglycemia occurred.
Per participant and clamp, 30 plasma samples were collected in regular intervals and stored at −70°C. Samples were analyzed elsewhere (Northern Lights Mercodia Lispro ELISA, Mercodia AB, Uppsala, Sweden; lowest limit of quantification (LLOQ) = 1.0 mU/L, 94% accuracy[7]). Owing to the small sample size and the intrinsically greater variability in pharmacodynamic measures, the PK results are the only results detailed in this report.
PK parameters (area under the insulin concentration curve [AUC] over the first 60 or 300 min, respectively; time to maximum insulin concentration [tmax]; maximum insulin concentration [Cmax]; time to half-maximum insulin concentration, early and late [t50%], and mean residence time [MRT]) were tested for treatment effects. […] Estimated means were then back transformed and the ratio between treatments/days (equality means a ratio of 1) tested for significance using mixed model for repeated measures (two-sided, α = 0.05). For simplicity reasons, all data are presented as median (25th–75th percentiles) or mean ± standard deviation.

[1] = day 0 of IIS wear, CBX IIS, n = 6
[2] = day 0 of IIS wear, Control IIS, n = 6
[3] = day 3 of IIS wear, CBX IIS, n = 6
[4] = day 3 of IIS wear, Control IIS, n = 6
[5] = day 5 of IIS wear, CBX IIS, n = 6
[6] = day 5 of IIS wear, Control IIS, n = 6
[7] = day 7 of IIS wear, CBX IIS, n = 5
[8] = day 7 of IIS wear, Control IIS, n = 5

For insulin lispro, the “acceleration of median tmax by day 7 vs day 0” value (CBX group) was 61%, the “decrease of median MRT from day 0 to day 7” value (CBX group) was 42% and the “increase of median early exposure (AUC0–60) by day 7 vs day 0” value (CBX group) was 59%. For the same substance, the “decline of median total insulin exposure (AUC0–300) from days 0 to 7” value (CBX group) was 22%, the “acceleration of median tmax by day 7 vs day 0” value (Control group) was 63% and the “increase of median early exposure (AUC0–60) by day 7 vs day 0” value (Control group) was 34%. For the same substance, the “decline of median total insulin exposure (AUC0–300) from days 0 to 7” value (Control group) was 26%, the “AUC0–300 (area under the insulin concentration curve, 0 to 300 min)” value [1] was 8562 (6576–11416) mU/(min·L) and the “Cmax (maximum insulin concentration)” value [1] was 60.4 (33.5–73.6) mU/L. The “MRT (mean residence time)” value [1] was 129.5 (117.1–137.5) min, the “t50% (early) (time to reach 50% of Cmax before peak)” value (“t50% (early)” below) [1] was 23.3 (11.8–34.1) min and the “t50% (late) (time to reach 50% of Cmax after peak)” value (“t50% (late)” below) [1] was 163.1 (157.3–181.8) min. For the same substance, the “tmax (time to maximum insulin concentration)” value [1] was 65.0 (50.0–90.0) min, the “AUC0–300 (area under the insulin concentration curve, 0 to 300 min)” value [2] was 8894 (7599–9870) mU/(min·L) and the “Cmax (maximum insulin concentration)” value [2] was 61.9 (45.0–82.5) mU/L. For the same substance, the “MRT (mean residence time)” value [2] was 118.0 (97.9–131.0) min, the “t50% (early)” value [2] was 27.4 (19.8–32.7) min and the “t50% (late)” value [2] was 156.5 (121.2–174.5) min. The “tmax (time to maximum insulin concentration)” value [2] was 67.5 (45.0–80.0) min, the “AUC0–300 (area under the insulin concentration curve, 0 to 300 min)” value [3] was 8281 (7176–10737) mU/(min·L) and the “Cmax (maximum insulin concentration)” value [3] was 69.0 (56.2–71.5) mU/L. The “MRT (mean residence time)” value [3] was 114.4 (105.9–116.9) min, the “t50% (early)” value [3] was 18.0 (11.2–19.2) min and the “t50% (late)” value [3] was 135.4 (120.4–150.0) min. For the same substance, the “tmax (time to maximum insulin concentration)” value [3] was 42.5 (35.0–45.0) min, the “AUC0–300 (area under the insulin concentration curve, 0 to 300 min)” value [4] was 7434 (6600–8282) mU/(min·L) and the “Cmax (maximum insulin concentration)” value [4] was 60.2 (56.2–69.7) mU/L. For the same substance, the “MRT (mean residence time)” value [4] was 112.4 (104.1–124.3) min, the “t50% (early)” value [4] was 15.7 (12.2–25.6) min and the “t50% (late)” value [4] was 119.3 (98.8–152.7) min. For the same substance, the “tmax (time to maximum insulin concentration)” value [4] was 32.5 (25.0–50.0) min, the “AUC0–300 (area under the insulin concentration curve, 0 to 300 min)” value [5] was 8175 (7194–8538) mU/(min·L) and the “Cmax (maximum insulin concentration)” value [5] was 93.6 (73.9–104.4) mU/L. The “MRT (mean residence time)” value [5] was 89.0 (76.9–91.7) min, the “t50% (early)” value [5] was 12.4 (10.3–14.2) min and the “t50% (late)” value [5] was 74.8 (66.7–76.2) min. For the same substance, the “tmax (time to maximum insulin concentration)” value [5] was 25.0 (25.0–30.0) min, the “AUC0–300 (area under the insulin concentration curve, 0 to 300 min)” value [6] was 7253 (5949–7625) mU/(min·L) and the “Cmax (maximum insulin concentration)” value [6] was 72.6 (54.1–91.0) mU/L. The “MRT (mean residence time)” value [6] was 88.7 (85.7–110.5) min, the “t50% (early)” value [6] was 11.5 (8.2–13.1) min and the “t50% (late)” value [6] was 69.3 (68.2–88.3) min. For the same substance, the “tmax (time to maximum insulin concentration)” value [6] was 25.0 (25.0–30.0) min, the “AUC0–300 (area under the insulin concentration curve, 0 to 300 min)” value [7] was 6684 (6402–8342) mU/(min·L) and the “Cmax (maximum insulin concentration)” value [7] was 92.3 (78.4–101.5) mU/L. For the same substance, the “MRT (mean residence time)” value [7] was 75.7 (66.7–87.0) min, the “t50% (early)” value [7] was 11.6 (9.5–14.2) min and the “t50% (late)” value [7] was 62.5 (60.7–68.8) min. For the same substance, the “tmax (time to maximum insulin concentration)” value [7] was 25.0 (25.0–25.0) min, the “AUC0–300 (area under the insulin concentration curve, 0 to 300 min)” value [8] was 6603 (5822–6773) mU/(min·L) and the “Cmax (maximum insulin concentration)” value [8] was 80.9 (79.0–84.0) mU/L. The “MRT (mean residence time)” value [8] was 75.4 (62.2–98.6) min.
